# Data as given in patent publication US20220323445A1, “REDUCING IMMUNOGENICITY TO PEGLOTICASE” (Horizon Therapeutics Ireland DAC, priority 2020, published 2022).
# B1: pegloticase (protein)
# chain: TYKKNDEVEFVRTGYGKDMIKVLHIQRDGKYHSIKEVATTVQLTLSSKKDYLHGDNSDVIPTDTIKNTVNVLAKFKGIKSIETFAVTICEHFLSSFKHVIRAQVYVEEVPWKRFEKNGVKHVHAFIYTPTGTHFCEVEQIRNGPPVIHSGIKDLKVLKTTQSGFEGFIKDQFTTLPEVKDRCFATQVYCKWRYHQGRDVDFEATWDTVRSIVLQKFAGPYDKGEYSPSVQKTLYDIQVLTLGQVPEIEDMEISLPNIHYLNIDMSKMGLINKEEVLLPLDNPYGKITGTVKRKLSSRL
# modifications: monomethoxy PEG conjugated; Krystexxa Sequence
# notes: covalent conjugate of uricase produced by a genetically modified strain of Escherichia coli and monomethoxypoly (ethylene glycol)
# System: serum uric acid (sUA)
# Experiment: Serum uric acid (sUA) levels and sUA responders, open-label study of pegloticase with MTX (NCT03635957)
# Format: in vivo, human
# Experimental: The primary objective is to estimate the response rate during Month 6 (Weeks 20, 22, and 24), as measured by the sustained normalization of serum uric acid (SUA) to <6 mg/dL for at least 80% of the time during Month 6 in subjects receiving KXX with MTX.
# The primary efficacy outcome endpoint is the sustained normalization of SUA to <6 mg/dL for at least 80% of the time during month 6 (weeks 20, 22, and 24) in subjects receiving KXX with MTX. This is slightly below the urate solubility threshold and this threshold has been the accepted standard for nearly all modern gout trials. Participants who achieve this endpoint were classified as “responders.” Serum uric acid (SUA) responders may also be defined as participants achieving and maintaining SUA <6 mg/dL for at least 80% of the time during Month 6 (Weeks 20, 22, and 24).
# Blood samples may be collected prior to each pegloticase infusion for measurement of SUA levels using the Beckman Coulter AU System Uric Acid procedure. Participants were declared “non-responders” if there were SUA measures >6 mg/dL at 2 consecutive study visits beginning with the week 2 visit. […] If the SUA goal is not maintained before or at the 12-week mark, it was assumed that the participant had developed clinically relevant anti-pegloticase antibody and they received no further infusions. This assumption and subsequent discontinuation of pegloticase was consistent with the protocol of large phase III randomized controlled trials and the product label. A formal stopping rule was 2 occasions of SUA levels of greater than 6 mg/dL.
# Clinical Chemistry—Blood samples were collected prior to each pegloticase infusion for measurement of SUA levels (primary efficacy parameter) using the Beckman Coulter AU System Uric Acid procedure. In this procedure uric acid is converted to hydrogen peroxide. Hydrogen peroxide reacts with reagent to produce a chromophore which is read bichromatically at 660/800 nm. The amount of dye formed is proportional to the uric acid concentration in the sample.
# Serum samples for measurement of SUA levels were collected at the Screening Visit, the Week −4 Visit (prior to the first dose of MTX), and the Week −2 Visit during the MTX Run-in Period; within 48 hours prior to each pegloticase infusion and after the end of each pegloticase infusion prior to discharge from the site during the Pegloticase+IMM Period; at the non-infusion Week 52/End of Study/Early Termination Visits and at the Post Treatment 3 and 6 Month Follow-up Visits. Additional serum samples for SUA levels were collected at optional non-infusion (Frequent Sampling) Visits at Weeks 1 and 7. […] Subjects with SUA level >6 mg/dL at 2 consecutive visits beginning at Week 2 visit discontinued treatment, completed the End of Pegloticase Infusion Visit procedures within 2 weeks and continued the subject visits according to the protocol (without treatment).
# Efficacy analyses were performed using the modified intention-to-treat (mITT) population, defined as all enrolled subjects who received ≥1 dose of pegloticase. The proportion of Month 6 responders was summarized, along with a 95% confidence interval for the proportion. The proportion of Month 3 and overall (Months 3 and 6 combined) responders was analyzed similarly.
# A subject was declared a non-responder if the subject had SUA level >6 mg/dL at 2 consecutive study visits beginning with the Week 2 Visit. In addition, a subject who withdraws from study treatment for any reason after the first dose of pegloticase in the KXX+MTX Period and prior to Month 6 (for the primary endpoint) or Month 3 (for the secondary endpoint) was considered a non-responder if SUA values were not collected at the planned time points.
# Patients were administered oral MTX (15 mg/week) and folate (1 mg/day) 4 weeks prior to the first pegloticase infusion (Day 1) and throughout the pegloticase treatment period. […]
# [1] = Day 1 - Post-Infusion, Month 6 sUA Non-Responders
# [2] = Day 1 - Post-Infusion, Month 6 sUA Responders
# [3] = Day 1 - Post-Infusion, mITT, n=11
# [4] = Early Termination Visit, Month 6 sUA Non-Responders
# [5] = Early Termination Visit, mITT, n=3
# [6] = End of Pegloticase Infusions Visit, Month 6 sUA Responders
# [7] = End of Pegloticase Infusions Visit, mITT, n=2
# [8] = Week 1, Month 6 sUA Non-Responders
# [9] = Week 2 - Post-Infusion, Month 6 sUA Non-Responders
# [10] = Week 2 - Post-Infusion, Month 6 sUA Responders
# [11] = Week 2 - Post-Infusion, mITT, n=14
molecule,measurement,setting,value
B1,"sUA < 6 mg/dL, %",[1],(100%)
same,"sUA Change from Baseline, Mean",[1],-6.60 mg/dL
same,"sUA Change from Baseline, Median",[1],-7.20 mg/dL
same,"sUA Observed, Mean",[1],2.13 mg/dL
same,"sUA Observed, Median",[1],1.20 mg/dL
same,"sUA < 6 mg/dL, %",[2],(100%)
same,"sUA Change from Baseline, Mean",[2],-7.55 mg/dL
same,"sUA Change from Baseline, Median",[2],-7.50 mg/dL
same,"sUA Observed, Mean",[2],0.83 mg/dL
same,"sUA Observed, Median",[2],0.30 mg/dL
same,"sUA < 6 mg/dL, n (%)",[3],11 (100%)
same,"sUA Change from Baseline, Mean (SD)",[3],−7.29 (2.254) mg/dL
same,"sUA Change from Baseline, Median",[3],-7.30 mg/dL
same,"sUA Observed, Mean (SD)",[3],1.18 (1.417) mg/dL
same,"sUA Observed, Median",[3],0.30 mg/dL
same,"sUA Change from Baseline, Mean",[4],-0.57 mg/dL
same,"sUA Change from Baseline, Median",[4],-0.20 mg/dL
same,"sUA Observed, Mean",[4],8.17 mg/dL
same,"sUA Observed, Median",[4],8.20 mg/dL
same,"sUA < 6 mg/dL, n (%)",[5],0%
same,"sUA Change from Baseline, Mean (SD)",[5],−0.57 (0.635) mg/dL
same,"sUA Change from Baseline, Median",[5],-0.20 mg/dL
same,"sUA Observed, Mean (SD)",[5],8.17 (0.058) mg/dL
same,"sUA Observed, Median",[5],8.20 mg/dL
same,"sUA < 6 mg/dL, %",[6],(100%)
same,"sUA Change from Baseline, Mean",[6],-8.50 mg/dL
same,"sUA Change from Baseline, Median",[6],-8.50 mg/dL
same,"sUA Observed, Mean",[6],0.30 mg/dL
same,"sUA Observed, Median",[6],0.30 mg/dL
same,"sUA < 6 mg/dL, n (%)",[7],2 (100%)
same,"sUA Change from Baseline, Mean (SD)",[7],−8.50 (1.556) mg/dL
same,"sUA Change from Baseline, Median",[7],-8.50 mg/dL
same,"sUA Observed, Mean (SD)",[7],0.30 (0.000) mg/dL
same,"sUA Observed, Median",[7],0.30 mg/dL
same,"sUA < 6 mg/dL, %",[8],(100%)
same,"sUA Change from Baseline, Mean",[8],-8.10 mg/dL
same,"sUA Change from Baseline, Median",[8],-8.10 mg/dL
same,"sUA Observed, Mean",[8],0.30 mg/dL
same,"sUA Observed, Median",[8],0.30 mg/dL
same,"sUA < 6 mg/dL, %","Week 1, Month 6 sUA Responders",(100%)
same,"sUA Change from Baseline, Mean","Week 1, Month 6 sUA Responders",-6.88 mg/dL
same,"sUA Change from Baseline, Median","Week 1, Month 6 sUA Responders",-7.15 mg/dL
same,"sUA Observed, Mean","Week 1, Month 6 sUA Responders",0.30 mg/dL
same,"sUA Observed, Median","Week 1, Month 6 sUA Responders",0.30 mg/dL
same,"sUA < 6 mg/dL, n (%)","Week 1, mITT, n=6",6 (100%)
same,"sUA Change from Baseline, Mean (SD)","Week 1, mITT, n=6",−7.28 (1.556) mg/dL
same,"sUA Change from Baseline, Median","Week 1, mITT, n=6",-7.75 mg/dL
same,"sUA Observed, Mean (SD)","Week 1, mITT, n=6",0.30 (0.000) mg/dL
same,"sUA Observed, Median","Week 1, mITT, n=6",0.30 mg/dL
same,"sUA < 6 mg/dL, %",[9],(100%)
same,"sUA Change from Baseline, Mean",[9],-8.43 mg/dL
same,"sUA Change from Baseline, Median",[9],-8.10 mg/dL
same,"sUA Observed, Mean",[9],0.30 mg/dL
same,"sUA Observed, Median",[9],0.30 mg/dL
same,"sUA < 6 mg/dL, %",[10],(100%)
same,"sUA Change from Baseline, Mean",[10],-8.97 mg/dL
same,"sUA Change from Baseline, Median",[10],-8.80 mg/dL
same,"sUA Observed, Mean",[10],0.30 mg/dL
same,"sUA Observed, Median",[10],0.30 mg/dL
same,"sUA < 6 mg/dL, n (%)",[11],14 (100%)
same,"sUA Change from Baseline, Mean (SD)",[11],−8.86 (2.486) mg/dL
same,"sUA Change from Baseline, Median",[11],-8.70 mg/dL
same,"sUA Observed, Mean (SD)",[11],0.30 (0.000) mg/dL
same,"sUA Observed, Median",[11],0.30 mg/dL
